The source of these data is article PMC9896810, “Crk proteins activate the Rap1 guanine nucleotide exchange factor C3G by segregated adaptor-dependent and -independent mechanisms” (Cell Communication and Signaling : CCS, 2023).

Assay [1] concerns the target T1, C3G-AAAP (human, UniProt Q13905-1 4-1077, P283A | P284A | L286 | P287 | P289A | P453A | P454A | L456A | P457A | K459A | …).
T1 construct: human C3G isoform a, residues 4-1077; only P4 kept, P1, P2 and P3 mutated to Ala; source: E. coli BL21 (DE3), purified (IMAC, TEV digestion, reversed IMAC, SEC); not shown: His, N-terminal, cleaved; Halo, N-terminal, cleaved
T1 sequence (looked up): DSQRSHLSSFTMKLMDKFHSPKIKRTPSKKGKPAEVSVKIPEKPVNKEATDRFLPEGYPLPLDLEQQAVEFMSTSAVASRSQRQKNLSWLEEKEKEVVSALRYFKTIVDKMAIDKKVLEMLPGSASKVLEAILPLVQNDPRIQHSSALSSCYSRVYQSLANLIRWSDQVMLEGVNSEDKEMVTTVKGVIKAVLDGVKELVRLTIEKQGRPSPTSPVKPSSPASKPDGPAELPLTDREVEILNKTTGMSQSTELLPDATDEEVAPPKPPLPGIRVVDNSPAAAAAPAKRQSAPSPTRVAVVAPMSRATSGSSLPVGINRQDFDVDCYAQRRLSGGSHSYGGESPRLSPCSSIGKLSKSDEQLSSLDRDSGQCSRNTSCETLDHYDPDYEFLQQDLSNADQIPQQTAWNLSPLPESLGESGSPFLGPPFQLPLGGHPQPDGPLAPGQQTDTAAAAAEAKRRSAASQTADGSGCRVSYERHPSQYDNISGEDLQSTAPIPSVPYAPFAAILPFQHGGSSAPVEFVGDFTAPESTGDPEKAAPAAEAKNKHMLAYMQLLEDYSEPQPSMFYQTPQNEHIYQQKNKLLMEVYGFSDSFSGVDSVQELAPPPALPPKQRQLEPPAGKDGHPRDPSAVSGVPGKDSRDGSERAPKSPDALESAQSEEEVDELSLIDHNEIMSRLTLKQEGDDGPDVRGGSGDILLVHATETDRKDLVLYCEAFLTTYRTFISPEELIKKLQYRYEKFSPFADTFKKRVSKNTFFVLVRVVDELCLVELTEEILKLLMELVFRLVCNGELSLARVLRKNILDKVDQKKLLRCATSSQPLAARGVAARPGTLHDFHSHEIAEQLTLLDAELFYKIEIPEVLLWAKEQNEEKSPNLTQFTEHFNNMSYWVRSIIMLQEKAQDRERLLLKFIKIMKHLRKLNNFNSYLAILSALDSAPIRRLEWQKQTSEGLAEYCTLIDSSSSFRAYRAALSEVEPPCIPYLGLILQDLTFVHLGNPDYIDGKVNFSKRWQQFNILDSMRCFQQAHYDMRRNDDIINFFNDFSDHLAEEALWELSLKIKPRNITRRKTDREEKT
Nature of the assay: ITC; single-PRM mutant of C3G in the cell titrated with CrkL or CrkL-SH3N, 25 °C, 300 mM NaCl, pH 7.5; SEDPHAT, 1:1 heteroassociation model; N is the competent fraction of C3G. To be noted: both partners purified. A general note: Isothermal titration calorimetry measures the heat released or taken up as one component is titrated into another.

The target in assay [2] is T2, Src-phosphorylated C3G-AAAP (human, UniProt Q13905-1 4-1077, P283A | P284A | L286 | P287 | P289A | P453A | P454A | L456A | P457A | K459A | …, phosphotyrosines from phosphorylation in vitro with Src (sites not given)).
T2 construct: human C3G isoform a, residues 4-1077; only P4 kept, P1, P2 and P3 mutated to Ala; also called pC3G-AAAP; source: E. coli BL21 (DE3), purified; phosphorylated in vitro with the recombinant kinase domain of Src, then SEC; not shown: His, N-terminal, cleaved; Halo, N-terminal, cleaved
T2 sequence (looked up): T1 sequence (looked up)
The assay is described as above. The settings on record: both partners purified.

B1: CrkL-SH3N (domain or fragment, human, UniProt P46109 125-182, looked up)
chain: LEYVRTLYDFPGNDAEDLPFKKGEILVIIEKPEEQWWSARNKDGRVGMIPVPYVEKLV
notes: human CrkL, SH3N domain, residues 125-182, in pETEV15b; source: E. coli BL21 (DE3), purified (IMAC, TEV digestion, SEC); not shown: His, N-terminal, cleaved
In the case of B1, the Kd (as a rule, the concentration at which binding is half-saturated) in assay [1] stood at 2700 nM; in assay [2] it was 2400 nM. Besides, the stoichiometry N – broadly, a count of units in the complex or per binding partner – stood at 0.71 in assay [1] and 0.74 in assay [2].

B2: CrkL (full-length) (natural protein, human, UniProt P46109 1-303, looked up)
chain: MSSARFDSSDRSAWYMGPVSRQEAQTRLQGQRHGMFLVRDSSTCPGDYVLSVSENSRVSHYIINSLPNRRFKIGDQEFDHLPALLEFYKIHYLDTTTLIEPAPRYPSPPMGSVSAPNLPTAEDNLEYVRTLYDFPGNDAEDLPFKKGEILVIIEKPEEQWWSARNKDGRVGMIPVPYVEKLVRSSPHGKHGNRNSNSYGIPEPAHAYAQPQTTTPLPAVSGSPGAAITPLPSTQNGPVFAKAIQKRVPCAYDKTALALEVGDIVKVTRMNINGQWEGEVNGRKGLFPFTHVKIFDPQNPDENE
notes: human CrkL, residues 1-303, in pETEV15b; also called Crk-like protein; source: E. coli BL21 (DE3), purified (IMAC, TEV digestion, SEC); not shown: His, N-terminal, cleaved
B2: the equilibrium dissociation constant (Kd) in assay [1] was determined as 2400 nM.
